Laboratory results published in PMC10786891, “Massively parallel profiling of RNA-targeting CRISPR-Cas13d”.

T1: EsCas13d, nuclease-dead (Eubacterium siraeum, UniProt B0MS50, R295A;H300A;R849A;H854A)
T1 sequence: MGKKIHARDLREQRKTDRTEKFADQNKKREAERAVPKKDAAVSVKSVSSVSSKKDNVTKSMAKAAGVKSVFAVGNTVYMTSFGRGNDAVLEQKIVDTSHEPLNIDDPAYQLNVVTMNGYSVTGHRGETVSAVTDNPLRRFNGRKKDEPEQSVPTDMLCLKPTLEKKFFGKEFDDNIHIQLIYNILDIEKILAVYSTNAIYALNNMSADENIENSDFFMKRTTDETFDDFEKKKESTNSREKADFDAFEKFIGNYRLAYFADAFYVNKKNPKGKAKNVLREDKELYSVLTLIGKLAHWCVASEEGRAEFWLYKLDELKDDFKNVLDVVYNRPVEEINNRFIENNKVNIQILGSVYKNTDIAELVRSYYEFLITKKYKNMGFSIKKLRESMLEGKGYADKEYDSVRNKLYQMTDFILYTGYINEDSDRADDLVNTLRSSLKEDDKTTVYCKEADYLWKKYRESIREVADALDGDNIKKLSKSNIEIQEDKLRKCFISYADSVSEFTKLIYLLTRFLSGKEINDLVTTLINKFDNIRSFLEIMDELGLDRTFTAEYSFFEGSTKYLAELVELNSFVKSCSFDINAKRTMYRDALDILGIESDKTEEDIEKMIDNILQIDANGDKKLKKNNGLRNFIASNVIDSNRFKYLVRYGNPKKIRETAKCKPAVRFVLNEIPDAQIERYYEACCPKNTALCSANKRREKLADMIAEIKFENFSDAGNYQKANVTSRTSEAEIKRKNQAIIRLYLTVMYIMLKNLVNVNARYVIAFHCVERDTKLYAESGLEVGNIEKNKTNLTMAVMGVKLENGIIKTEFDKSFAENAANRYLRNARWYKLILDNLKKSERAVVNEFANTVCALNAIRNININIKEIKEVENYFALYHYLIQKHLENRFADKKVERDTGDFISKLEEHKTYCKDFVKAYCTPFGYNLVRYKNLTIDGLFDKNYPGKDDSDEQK


How the values were obtained:
[1] = molecular target: T1, EsCas13d, nuclease-dead; test: BLI; crRNA (strand 1, pre-loaded); Mg2+; 40 mM Tris-HCl pH 7.5, 150 mM NaCl, 6 mM MgCl2, 1 mM DTT, 0.1% Tween-20, 0.2 mg/ml BSA; temperature not stated; details: tags: His6-TwinStrep-SUMO cleaved; label: 3' biotin on strand 2
[2] = molecular target: T1, EsCas13d, nuclease-dead; test: crRNA (strand 1, pre-loaded); Mg2+; 40 mM Tris-HCl pH 7.5, 150 mM NaCl, 6 mM MgCl2, 1 mM DTT, 0.1% Tween-20, 0.2 mg/ml BSA; 25 C; 10 min per concentration, then washed; details: tags: His6-TwinStrep-SUMO cleaved; N-terminal SNAP kept (SNAP-Surface 488); label: 3' end held by stalled T7 RNA polymerase
[3] = molecular target: T1, EsCas13d, nuclease-dead; test: BLI; crRNA (strand 1, pre-loaded); Mg2+; 40 mM Tris-HCl pH 7.5, 150 mM NaCl, 6 mM MgCl2, 1 mM DTT, 0.1% Tween-20, 0.2 mg/ml BSA; temperature not stated; details: tags: His6-TwinStrep-SUMO cleaved; label: 3' biotin on strand 2; remark: listed apart in the source

Row | Binder | koff [1] [s⁻¹] | kon [1] [M⁻¹ s⁻¹] | Kd [2] [nM] | Kd [3] [nM]
1 | target 1 MT (60-mer) (mixed) RNA 1: CACCCGUGCAAAAAUGCAGGGGUCUAAAACUGAGCGGAUAACCUCUCUAUGG RNA 2: CCACAUCUACGAAUUCGUACCAUAGAGAGGUUAUCCGCUCACCGAGAUCGGAAGAGCACA | 0.00052 | 170000 |  | 
2 | target 1 MT 5'PFS GCC 3'PFS UGU (mixed) RNA 1: CACCCGUGCAAAAAUGCAGGGGUCUAAAACUGAGCGGAUAACCUCUCUAUGG RNA 2: GGGAAUGGAUCCACAUCUACGAAUUCGCCCCAUAGAGAGGUUAUCCGCUCAUGUAGAUCGGAAGAGCACACGU |  |  | 20 ± 5 | 
3 | target 1 3'-GGU (60-mer) (mixed) RNA 1: CACCCGUGCAAAAAUGCAGGGGUCUAAAACUGAGCGGAUAACCUCUCUAUGG RNA 2: CCACAUCUACGAAUUCGUACCAUAGAGAGGUUAUCCGCUCAGGUAGAUCGGAAGAGCACA | 0.00084 | 120000 |  | 7.1
4 | target 1 C2G (60-mer) (mixed) RNA 1: CACCCGUGCAAAAAUGCAGGGGUCUAAAACUGAGCGGAUAACCUCUCUAUGG RNA 2: CCACAUCUACGAAUUCGUACCAUAGAGAGGUUAUCCGCUGACCGAGAUCGGAAGAGCACA | 0.0004 | 200000 |  | 2
5 | target 1 MT 5'PFS GCC 3'PFS UGC (mixed) RNA 1: CACCCGUGCAAAAAUGCAGGGGUCUAAAACUGAGCGGAUAACCUCUCUAUGG RNA 2: GGGAAUGGAUCCACAUCUACGAAUUCGCCCCAUAGAGAGGUUAUCCGCUCAUGCAGAUCGGAAGAGCACACGU |  |  | 9 ± 1.35 | 
6 | target 1 C7A (60-mer) (mixed) RNA 1: CACCCGUGCAAAAAUGCAGGGGUCUAAAACUGAGCGGAUAACCUCUCUAUGG RNA 2: CCACAUCUACGAAUUCGUACCAUAGAGAGGUUAUACGCUCACCGAGAUCGGAAGAGCACA | 0.00045 | 220000 |  | 2.1
7 | target 1 MT 5'PFS GGA 3'PFS AGA (mixed) RNA 1: CACCCGUGCAAAAAUGCAGGGGUCUAAAACUGAGCGGAUAACCUCUCUAUGG RNA 2: GGGAAUGGAUCCACAUCUACGAAUUCGGACCAUAGAGAGGUUAUCCGCUCAAGAAGAUCGGAAGAGCACACGU |  |  | 20.5 ± 2.75 | 
8 | target 1 C4A (60-mer) (mixed) RNA 1: CACCCGUGCAAAAAUGCAGGGGUCUAAAACUGAGCGGAUAACCUCUCUAUGG RNA 2: CCACAUCUACGAAUUCGUACCAUAGAGAGGUUAUCCGAUCACCGAGAUCGGAAGAGCACA | 0.00035 | 220000 |  | 1.6
9 | target 1 MT 5'PFS UUG 3'PFS UGU (mixed) RNA 1: CACCCGUGCAAAAAUGCAGGGGUCUAAAACUGAGCGGAUAACCUCUCUAUGG RNA 2: GGGAAUGGAUCCACAUCUACGAAUUCUUGCCAUAGAGAGGUUAUCCGCUCAUGUAGAUCGGAAGAGCACACGU |  |  | 51 ± 11.5 | 
10 | target 1 MT 5'PFS GCC 3'PFS UGA (mixed) RNA 1: CACCCGUGCAAAAAUGCAGGGGUCUAAAACUGAGCGGAUAACCUCUCUAUGG RNA 2: GGGAAUGGAUCCACAUCUACGAAUUCGCCCCAUAGAGAGGUUAUCCGCUCAUGAAGAUCGGAAGAGCACACGU |  |  | 11.8 ± 2.3 | 
11 | target 1 A18G (60-mer) (mixed) RNA 1: CACCCGUGCAAAAAUGCAGGGGUCUAAAACUGAGCGGAUAACCUCUCUAUGG RNA 2: CCACAUCUACGAAUUCGUACCAUGGAGAGGUUAUCCGCUCACCGAGAUCGGAAGAGCACA | 0.00063 | 73000 |  | 8.7
12 | target 1 MT 5'PFS GCU 3'PFS UAA (mixed) RNA 1: CACCCGUGCAAAAAUGCAGGGGUCUAAAACUGAGCGGAUAACCUCUCUAUGG RNA 2: GGGAAUGGAUCCACAUCUACGAAUUCGCUCCAUAGAGAGGUUAUCCGCUCAUAAAGAUCGGAAGAGCACACGU |  |  | 49.5 ± 11 | 
